In paper PMC10696041:

Biological target: C-propeptide of collagen III
Assay: SPR; C-propeptide III immobilised by amine coupling on CM5; 10 mM HEPES pH 7.4, 0.15 M NaCl, 5 mM CaCl2, 0.05% P20, 25 °C

B1: procollagen C-proteinase enhancer-2 with N-terminal 6His-tag (natural protein)
chain: QSPERPVFTCGGILTGESGFIGSEGFPGVYPPNSKCTWKITVPEGKVVVLNFRFIDLESDNLCRYDFVDVYNGHANGQRIGRFCGTFRPGALVSSGNKMMVQMISDANTAGNGFMAMFSAAEPNERGDQYCGGLLDRPSGSFKTPNWPDRDYPAGVTCVWHIVAPKNQLIELKFEKFDVERDNYCRYDYVAVFNGGEVNDARRIGKYCGDSPPAPIVSERNELLIQFLSDLSLTADGFIGHYIFRPKKLPTTTEQPVTTTFPVTTGLKPTVALCQQKCRRTGTLEGNYCSSDFVLAGTVITTITRDGSLHATVSIINIYKEGNLAIQQAGKNMSARLTVVCKQCPLLRRGLNYIIMGQVGEDGRGKIMPNSFIMMFKTKNQKLLDALKNKQC
**Q.** With B1 as the binder, how does the Kd read?
**A.** 45 nM
